Key:
[1] = target: T1, endogenous LRRK2 (Mus musculus, UniProt Q5S006); assay: Colocalization of GFP-Nbs with endogenous LRRK2 on zymosan-containing phagosomes in RAW264.7 cells; type: cell-based; conditions: RAW264.7 cells transfected with GFP-Nbs, zymosan 30 mins, fixed cells
T1 construct: endogenous in cells; host or cells: RAW264.7
Procedure: RAW264.7 cells were transfected with GFP-fused Nbs and treated with Zymosan for 30 mins. Recruitment of LRRK2 and Nbs to the phagosomes was analyzed by immunofluorescence. FIG. 16A, images for Nb38, Nb22, Nb23, Nb40, No Nb, or Irrelevant (IRR) Nb treatments; FIG. 16B, images for Nb36, Nb42, Nb17, Nb39, Nb1, and Nb6 treatments. Scale bar=10 μm.
(§1) To test whether Nbs can trace and visualize endogenous LRRK2 in fixed cells, we generated green fluorescent protein (GFP)-Nb fusions (fluobodies) as described before. Recently, it was shown that LRRK2 is recruited to phagosomes upon induction of phagocytosis in immune cells. Therefore, RAW264.7 cells were transfected with these fluobodies and treated with killed yeast bioparticles “zymosan” to induce phagocytosis.
(§2) RAW264.7 cells (ATCC® SC-6003™) were transfected with peGFP-Nb constructs using JetOPTIMUS (Polyplus transfection) for 24 hrs and then stimulated with Zymosan particles (Sigma Aldrich) for 30 mins ([…]). Immunostaining for LRRK2 was performed as reported before. Briefly, cells fixed with 4% (w/v) paraformaldehyde for 30 min, followed by treatment with 100% EtOH at −20° C. Sampled were permeabilized with PBS/0.5% Triton X-100 and blocked with 3% BSA. Primary antibodies (rabbit anti-LRRK2, c41-2, Abcam and mouse anti-GFP, G6539, Sigma Aldrich) were diluted in PBS containing 3% BSA and 0.5% Triton X-100 and incubated overnight at 4° C. After three 5-min washes with PBS, secondary fluorescently labeled antibodies (anti-rabbit-Alexa fluor 568 and anti-mouse-Alexa fluor 488, Invitrogen) were added in a similar manner to primary antibodies and incubated for 1 hour at room temperature. Cells were washed twice with 1×PBS and mounted with Fluroshield antifade reagent with DAPI (SigmaAldrich). Images were acquired on Zeiss LSM800 confocal laser scanning microscope. Image analysis of z-scan was done using the Zeiss microscope software ZEN.

[2] = target: T2, mScarlet-LRRK2 (Homo sapiens, UniProt Q5S007, M2397T/R50H); assay: Confocal microscopy of LRRK2 microtubule localization in HEK293 cells; type: cell-based; conditions: HEK293 cells co-transfected with mScarlet-LRRK2 and GFP-Nb, treated with 1 μM MLi-2
T2 construct: expressed in transfected cells; host or cells: HEK293
T2 sequence (Q5S007 whole entry R50H/M2397T): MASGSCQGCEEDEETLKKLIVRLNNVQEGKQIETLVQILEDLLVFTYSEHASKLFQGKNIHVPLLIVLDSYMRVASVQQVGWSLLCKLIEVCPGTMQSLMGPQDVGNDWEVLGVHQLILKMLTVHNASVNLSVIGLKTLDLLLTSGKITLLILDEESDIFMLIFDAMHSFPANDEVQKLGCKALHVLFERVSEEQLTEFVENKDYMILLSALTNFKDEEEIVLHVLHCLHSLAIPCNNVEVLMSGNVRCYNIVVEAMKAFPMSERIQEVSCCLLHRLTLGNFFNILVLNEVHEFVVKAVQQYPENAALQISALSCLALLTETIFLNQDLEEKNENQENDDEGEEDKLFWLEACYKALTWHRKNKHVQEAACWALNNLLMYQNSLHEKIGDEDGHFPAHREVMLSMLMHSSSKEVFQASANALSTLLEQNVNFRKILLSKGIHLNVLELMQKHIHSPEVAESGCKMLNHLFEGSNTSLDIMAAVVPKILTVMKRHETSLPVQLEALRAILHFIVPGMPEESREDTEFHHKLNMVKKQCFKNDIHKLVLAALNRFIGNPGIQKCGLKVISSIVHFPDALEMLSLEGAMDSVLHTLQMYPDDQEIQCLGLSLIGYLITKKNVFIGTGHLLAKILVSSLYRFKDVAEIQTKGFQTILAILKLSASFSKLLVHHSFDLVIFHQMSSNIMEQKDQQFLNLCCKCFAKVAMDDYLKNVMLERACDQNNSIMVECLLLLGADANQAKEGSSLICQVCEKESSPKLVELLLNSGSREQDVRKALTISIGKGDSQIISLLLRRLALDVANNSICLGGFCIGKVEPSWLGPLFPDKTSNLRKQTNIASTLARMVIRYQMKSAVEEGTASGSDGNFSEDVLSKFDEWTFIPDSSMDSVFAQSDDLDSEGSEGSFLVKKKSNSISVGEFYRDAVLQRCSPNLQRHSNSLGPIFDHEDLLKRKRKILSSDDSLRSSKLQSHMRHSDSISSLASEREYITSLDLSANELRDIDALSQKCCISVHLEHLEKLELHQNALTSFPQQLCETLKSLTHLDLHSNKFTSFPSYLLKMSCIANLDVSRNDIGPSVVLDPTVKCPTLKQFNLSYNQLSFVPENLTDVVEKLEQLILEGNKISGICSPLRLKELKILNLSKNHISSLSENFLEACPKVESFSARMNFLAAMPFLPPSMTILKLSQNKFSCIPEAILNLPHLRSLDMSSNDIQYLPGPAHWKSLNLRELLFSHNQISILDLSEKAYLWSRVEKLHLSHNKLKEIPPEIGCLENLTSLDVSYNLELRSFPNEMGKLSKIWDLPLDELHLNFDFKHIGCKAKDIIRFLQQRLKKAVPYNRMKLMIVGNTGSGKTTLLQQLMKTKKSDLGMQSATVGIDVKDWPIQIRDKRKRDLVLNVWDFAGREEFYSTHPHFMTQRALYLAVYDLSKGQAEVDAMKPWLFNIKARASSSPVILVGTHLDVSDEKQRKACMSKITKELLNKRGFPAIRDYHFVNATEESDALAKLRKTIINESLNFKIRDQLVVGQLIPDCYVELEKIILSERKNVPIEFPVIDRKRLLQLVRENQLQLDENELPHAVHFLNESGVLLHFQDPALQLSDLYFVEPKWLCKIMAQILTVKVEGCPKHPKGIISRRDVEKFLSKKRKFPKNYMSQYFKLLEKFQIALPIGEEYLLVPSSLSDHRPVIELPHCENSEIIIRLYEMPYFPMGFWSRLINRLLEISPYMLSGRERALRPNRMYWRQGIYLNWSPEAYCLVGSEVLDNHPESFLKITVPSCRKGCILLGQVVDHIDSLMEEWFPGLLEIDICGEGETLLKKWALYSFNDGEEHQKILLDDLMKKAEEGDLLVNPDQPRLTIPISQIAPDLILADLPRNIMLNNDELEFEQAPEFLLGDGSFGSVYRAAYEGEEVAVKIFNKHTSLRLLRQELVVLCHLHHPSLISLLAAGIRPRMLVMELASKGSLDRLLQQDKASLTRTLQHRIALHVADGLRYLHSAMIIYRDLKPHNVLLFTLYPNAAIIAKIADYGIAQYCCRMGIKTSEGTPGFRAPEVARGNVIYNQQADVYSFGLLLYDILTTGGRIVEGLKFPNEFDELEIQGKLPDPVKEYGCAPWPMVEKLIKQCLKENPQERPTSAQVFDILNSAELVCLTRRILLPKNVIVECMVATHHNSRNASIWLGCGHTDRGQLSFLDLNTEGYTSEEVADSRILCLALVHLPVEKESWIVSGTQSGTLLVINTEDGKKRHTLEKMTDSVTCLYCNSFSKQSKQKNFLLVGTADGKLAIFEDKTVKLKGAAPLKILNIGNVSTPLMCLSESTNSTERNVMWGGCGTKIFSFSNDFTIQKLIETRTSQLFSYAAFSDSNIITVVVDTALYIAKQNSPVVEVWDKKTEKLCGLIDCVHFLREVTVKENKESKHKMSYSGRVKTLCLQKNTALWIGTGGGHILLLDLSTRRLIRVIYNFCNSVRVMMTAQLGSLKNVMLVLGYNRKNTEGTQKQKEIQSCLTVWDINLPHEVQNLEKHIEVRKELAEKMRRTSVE
Text: HEK 293 cells were co-transfected with the indicated GFP-Nbs and mScarlet-LRRK2. […] Scale bar 5 μm.
FIG. 6. […] Scale bar 5 μm.
The binding of LRRK2 to microtubules subsequently reduces the kinesin—and dynein-mediated transport along microtubules.
Recent structural information has linked LRRK2 microtubule relocalization to the conformation of the kinase domain, with a closed conformation favoring LRRK2 binding to microtubules. As a consequence, the commonly used ATP-competitive type I LRRK2 inhibitors trigger this effect. In addition, it was shown before that the WD40 domain is indispensable for LRRK2-microtubule association.
A HEK293 cell line was cultured in complete media (high-glucose Dulbecco's modified Eagle's medium, 10% fetal bovine serum and Penicillin-Streptomycin-Glutamine (Gibco)). Cells were seeded on 8-well p-Slide(Ibidi) and transfected at a confluency of 50-70% with GFP-Nb and mScarlet-LRRK2 constructs, using JetPEI reagent (Polyplus transfection). […] Data acquisition was done with a ×100 oil-immersion objective with a Zeiss LSM800 confocal laser scanning microscope. Image analysis of z-scan was done using the Zeiss microscope software ZEN.

[3] = target: T3, LRRK2(G2019S) (Homo sapiens, UniProt Q5S007, G2019S/M2397T/R50H); assay: In cellulo phospho-Rab / LRRK2 autophosphorylation assay in HEK293T cells; type: cell-based; set-up: key to Functional Group (see FIG. 2d): Group 1: group 1: Nbs that inhibit both LRRK2 autophosphorylation and Rab10 phosphorylation in cells; Group 2: group 2: Nbs that inhibit only Rab10 phosphorylation; Group 3: group 3: Nbs that activate LRRK2 kinase activity; Group 4: group 4: Nbs that have no consistent/clear effect on LRRK2 kinase activity; conditions: for LRRK2 autophosphorylation at position S1292 / influence on LRRK2 kinase activity compared to the controls / Rab10 phosphorylation at position T72: HEK 293T cells co-expressing LRRK2(G2019S), Rab29 and Nb-GFP; for influence on LRRK2 kinase activity compared to the controls: Western blot; for Functional Group (see FIG. 2d): classification by effect on in cellulo LRRK2(G2019S) kinase activity; for Rab10 phosphorylation at position T72: endogenous Rab10
T3 construct: SF tag (FLAG + Twin-Strep); expressed in transfected cells; host or cells: HEK 293T
T3 sequence (Q5S007 whole entry R50H/G2019S/M2397T): as the sequence (Q5S007 whole entry R50H/M2397T) above, with G2019S counted along it
Summary of the method: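 Cells co-transfected (PEI) with SF-tagged LRRK2(G2019S), FLAG-HA Rab29 and Nb-GFP fusions, lysed after 48 hrs. Western blot read LRRK2 pS1292 and endogenous Rab10 pT72 with site-specific antibodies, referenced to total LRRK2 and Rab10; ECL chemiluminescence on film.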

[4] = target: T4, endogenous mouse LRRK2 (RAW264.7 cells) (mouse, UniProt Q5S006 1-2527); assay: immunofluorescence colocalisation of GFP-Nb and LRRK2 in RAW264.7 cells
T4 construct: also called endogenous LRRK2
T4 sequence (Q5S006 whole entry): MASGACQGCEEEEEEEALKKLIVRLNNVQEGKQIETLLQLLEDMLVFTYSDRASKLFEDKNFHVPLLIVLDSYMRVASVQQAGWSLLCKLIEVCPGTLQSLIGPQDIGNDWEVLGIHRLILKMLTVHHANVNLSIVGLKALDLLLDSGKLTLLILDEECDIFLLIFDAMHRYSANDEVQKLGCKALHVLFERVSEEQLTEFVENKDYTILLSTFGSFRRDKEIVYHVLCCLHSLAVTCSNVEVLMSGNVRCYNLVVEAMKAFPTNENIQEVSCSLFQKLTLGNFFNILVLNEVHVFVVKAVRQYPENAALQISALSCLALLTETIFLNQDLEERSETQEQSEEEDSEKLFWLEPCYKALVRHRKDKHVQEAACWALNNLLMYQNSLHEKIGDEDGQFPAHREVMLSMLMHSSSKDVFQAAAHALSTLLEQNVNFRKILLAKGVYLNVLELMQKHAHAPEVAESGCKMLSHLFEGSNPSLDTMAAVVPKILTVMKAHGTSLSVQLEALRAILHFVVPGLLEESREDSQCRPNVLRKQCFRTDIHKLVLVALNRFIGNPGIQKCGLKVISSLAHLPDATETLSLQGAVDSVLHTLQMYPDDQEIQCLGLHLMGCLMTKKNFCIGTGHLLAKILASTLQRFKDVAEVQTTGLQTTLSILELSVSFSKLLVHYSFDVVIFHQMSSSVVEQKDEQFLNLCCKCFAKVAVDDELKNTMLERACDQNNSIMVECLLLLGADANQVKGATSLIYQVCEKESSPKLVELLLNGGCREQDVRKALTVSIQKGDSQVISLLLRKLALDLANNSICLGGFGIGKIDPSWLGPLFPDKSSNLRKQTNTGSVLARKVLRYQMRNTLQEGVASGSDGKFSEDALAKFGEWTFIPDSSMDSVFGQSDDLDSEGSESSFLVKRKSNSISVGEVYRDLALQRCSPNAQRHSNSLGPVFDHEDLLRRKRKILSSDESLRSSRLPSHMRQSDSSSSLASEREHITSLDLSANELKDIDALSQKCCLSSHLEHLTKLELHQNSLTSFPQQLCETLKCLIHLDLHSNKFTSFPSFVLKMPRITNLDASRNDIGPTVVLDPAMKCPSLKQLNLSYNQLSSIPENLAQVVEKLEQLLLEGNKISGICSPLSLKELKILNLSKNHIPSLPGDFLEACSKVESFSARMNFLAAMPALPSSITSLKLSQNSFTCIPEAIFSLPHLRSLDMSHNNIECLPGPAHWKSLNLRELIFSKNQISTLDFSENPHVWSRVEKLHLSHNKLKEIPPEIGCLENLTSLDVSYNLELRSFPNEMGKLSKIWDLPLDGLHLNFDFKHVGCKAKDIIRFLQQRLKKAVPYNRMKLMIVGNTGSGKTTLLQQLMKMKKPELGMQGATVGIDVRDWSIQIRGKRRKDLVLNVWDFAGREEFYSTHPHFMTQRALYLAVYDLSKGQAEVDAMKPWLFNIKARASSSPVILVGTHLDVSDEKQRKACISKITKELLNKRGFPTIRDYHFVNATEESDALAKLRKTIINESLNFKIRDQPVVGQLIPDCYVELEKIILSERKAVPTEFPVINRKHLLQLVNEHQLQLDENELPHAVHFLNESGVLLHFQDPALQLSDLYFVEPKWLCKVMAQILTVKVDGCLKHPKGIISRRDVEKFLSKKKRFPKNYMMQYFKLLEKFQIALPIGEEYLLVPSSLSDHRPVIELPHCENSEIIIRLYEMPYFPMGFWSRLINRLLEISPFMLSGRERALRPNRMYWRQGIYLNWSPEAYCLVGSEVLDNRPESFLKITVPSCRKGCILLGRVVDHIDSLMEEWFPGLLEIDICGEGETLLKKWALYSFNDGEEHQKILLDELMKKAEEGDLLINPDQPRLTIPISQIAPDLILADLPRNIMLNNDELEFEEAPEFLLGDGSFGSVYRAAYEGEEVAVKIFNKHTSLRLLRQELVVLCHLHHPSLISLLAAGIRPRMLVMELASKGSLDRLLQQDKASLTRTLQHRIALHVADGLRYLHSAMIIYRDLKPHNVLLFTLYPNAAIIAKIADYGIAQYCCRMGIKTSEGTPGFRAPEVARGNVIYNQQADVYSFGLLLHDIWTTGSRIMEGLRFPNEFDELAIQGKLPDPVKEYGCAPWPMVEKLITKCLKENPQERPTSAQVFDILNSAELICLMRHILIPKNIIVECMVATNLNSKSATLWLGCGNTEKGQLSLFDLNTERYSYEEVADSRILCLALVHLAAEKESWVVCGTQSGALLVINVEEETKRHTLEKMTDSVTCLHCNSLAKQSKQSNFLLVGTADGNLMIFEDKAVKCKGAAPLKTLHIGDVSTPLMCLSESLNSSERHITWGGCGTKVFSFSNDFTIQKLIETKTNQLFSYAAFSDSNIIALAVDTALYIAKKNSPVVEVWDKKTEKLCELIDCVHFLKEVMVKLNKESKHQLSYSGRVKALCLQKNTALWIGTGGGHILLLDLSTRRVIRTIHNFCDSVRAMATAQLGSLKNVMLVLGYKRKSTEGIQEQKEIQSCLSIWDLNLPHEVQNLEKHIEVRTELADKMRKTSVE
Text: as §1
as §2, with “After three 5-min washes with PBS, secondary fluorescently labeled antibodies (anti-rabbit-Alexa fluor 568 and anti-mouse-Alexa fluor 488, Invitrogen) were added in a similar manner to primary antibodies and incubated for 1 hour at room temperature.” left out

T1 sequence (Q5S006 whole entry): as above

effect on MLi-2-induced recruitment of LRRK2 to microtubules [2] | Functional Group (see FIG. 2d) [3] | Rab10 phosphorylation at position T72 [3] | binding result [4] | Molecule | colocalization with endogenous LRRK2 on phagosomes [1] | LRRK2 autophosphorylation at position S1292 [3] | influence on LRRK2 kinase activity compared to the controls [3]
rescuing effect is most prominent | Group 2 | inhibit Rab10 phosphorylation | – | Nb40: LRRK2-specific Nanobody, SEQ ID NO: 4 (protein, Nanobody CA14135) VHH: MAQVQLVESGGGLVQPGGSLRLSCVASGTIYAINRMGWYRQAPGKQRELVALITLGGGTNYGDSVKGRFTISRDNAKNTGYLQMNSLKPEDTAVYYCKVESSGYTDVFWGQGTQVTVSS | clearly colocalized with LRRK2 on zymosan-containing phagosomes | inhibiting S1292 phosphorylation at a lesser extent | strongly decreased LRRK2 autophosphorylation and/or Rab10 phosphorylation
– | – | – | binds | Nb40 (CA14135)-GFP fusion (VHH, expressed in cells as intrabody; also called GFP-Nb40; fluobody Nb40; not shown: enhanced GFP fused to the C-terminus of the Nb (pEGFP-N1)) VHH: QVQLVESGGGLVQPGGSLRLSCVASGTIYAINRMGWYRQAPGKQRELVALITLGGGTNYGDSVKGRFTISRDNAKNTGYLQMNSLKPEDTAVYYCKVESSGYTDVFWGQGTQVTVSS | – | – | –
– | – | – | binds | Nb38 (CA14133)-GFP fusion (VHH, expressed in cells as intrabody; also called GFP-Nb38; fluobody Nb38; not shown: enhanced GFP fused to the C-terminus of the Nb (pEGFP-N1)) VHH: QVQLVESGGGLVQPGGSLRLSCAASGSIRSIATSAWYRQPPGKQRELVAGISSGTTTNYADSVKGRFTISRDNAKNTVYLQMNSLKPEDTAVYYCHAWISGTWISGQGTQVTVSS | – | – | –
rescuing effect is most prominent | Group 2 | inhibit Rab10 phosphorylation | – | Nb17: LRRK2-specific Nanobody, SEQ ID NO: 5 (protein, Nanobody CA13606) VHH: MAQVQLVESGGGLVQPGGSLRLSCAASGSNIGYMAWYRQAPGSQRELVARIASGGSANYADSVKGRFTISRDNVKNTVYLHMNSLKPVDTAVYYCHADAWYNSRWSDYWGQGTQVTVSS | LRRK2 recruitment to phagosomes was slightly detectable | inhibiting S1292 phosphorylation at a lesser extent | strongly decreased LRRK2 autophosphorylation and/or Rab10 phosphorylation

Source: US20230087785A1, “Leucine-Rich Repeat Kinase 2 Allosteric Modulators” (VIB VZW, priority 2020, published 2023)
